Our source for the Km and kcat values is paper PMC8559791.

Positions count from the first letter of the chain named. Names and notes keep the numbering of the source.

Substrate in this series: O=C(O)[C@@H]1CCC=N1
Briefly: purified protein. Particulars: GSALDH site; NAD+ fixed at saturating concentration; L-P5C 0-3.5 mM. The format is biochemical, Geobacter sulfurreducens.

B1: GsPutA (Geobacter sulfurreducens PCA) (protein)
chain: MLNSELNTKIVNRGKEFFGSISGEKPSLFNKGAWMGKAMDWSMQNEQFKIQMFRFVDVFPSLTTSKLLTEHIREYFGNEQDMPAFMSTGAKVAGMLGSFGGAVLNKVLTSNIEEMARQFIVGETTKEAVKNLEKLRKDGFAAVVDVLGEATLSEEEAEVYTNTYLELLEALKKEQGSWKGLPGKGGDPGLDWGHAPKVNIAVKPTALFCLANPQDFEGSVVAILDRMRRIFKKVMELNGFLCIDMESYRHKEIILEVFRRLKLEYRDYPHLGIVLQAYLKDNDKDLDDLLAWAKEHKVQISVRLVKGAYWDYETVKAKQNDWEVPVWTIKAESDAAYERQARKILENHQICHFACASHNIRTISAVMEMARELNVPEDRYEFQVLYGMAEPVRKGILKVAGRIRLYAPYGNMVPGMGYLVRRLLENTANESFLRQSFAEDAQIERLLEDPAVTVERERAARAAKPKKERKGLGGLPPFNNEAMVDFTRADHRAAFPKHIAQVRTQLGKTYPLFINGKEVRTNDLIPTVNPNKPSEVLGQICQAGTTEVGDAIAAAKAAFPAWRDTDPRTRAEYLLKAAQAARKRLFELSAWQVLEIGKQWDQAYADVTEAIDFLEYYAREMIRLGQPQRVGHAPGELNHYFYEPKGVAAVIAPWNFPLAISMGMASAAIVTGNCVVFKPSGITSIIGWHLVELFREAGLPEGVFNFTPGRGSVMGDYLVDHPDISLIAFTGSMETGLRIIERAAKVHPGQANVKKIISEMGGKNAIIIDDDADLDEAVPHVLYSAFGFQGQKCSACSRVIVLDAVYDKFIERLVSMAKATKVGPSEDPANYMGAVADDKAMKSIKEYAEIGKREGHVLYESPVPAGEGYFVPMTIIGGIKPEHRIAQEEIFGPVLAVMRAKDFDQAIEWANSTQFALTGGIFSRSPEHLAKARREFRVGNLYINRNNTGALVERQPFGGARMSGVGTKAGGPDYLLHFMDPRVVTENTMRRGFAPIEEDDDWVD
One may read the Km as the concentration of substrate that gives half-maximal velocity. In general, kcat refers to the maximal rate divided by the concentration of active sites. As to B1, the Km was 30.0 ± 13.0 µM and the kcat is 4.7 ± 0.2 s⁻¹.

B2: GsPutA (Geobacter sulfurreducens PCA; A206W) (protein)
chain: B1 chain with A206W
Consider B2, for which the Km came to 65.0 ± 18.3 µM and the kcat was found to be 6.0 ± 0.2 s⁻¹.
